Experimental data as given in patent US20230374087A1, “METHOD TO IMPROVE PROTEIN QUALITY CONTROL” (The Johns Hopkins University, priority 2020, published 2023).
Like-named read-outs stand apart in the source and are kept apart here.

Key:
[1] = system: CHIP pS20; assay: Immunoblot for phospho-S20 CHIP in myocytes; assay type: cell-based, rat; settings: cardiomyocytes; cGMP or SIL; DT3 1 μM
Experimental: (§1) Tissue and cultured cardiomyocytes were lysed in 1× lysis buffer (Cell Signaling Technology), protein concentration was measured by bicinchoninic acid assay (Pierce), and extracts were subjected to SDS-PAGE using Novex Tris-Glycine Gels (4-20% gradient gel, Life Technologies) or Mini-protean TGX Gels (4-20% gradient gel, Bio-Rad), transferred to nitrocellulose membranes, and probed with various primary antibodies (CHIP (#2080S), Hsc70 (#8444S), p-CHIP S20 (Custom antibody, AbMart Inc., Shanghai, China; Project: 25011-1), Myc (#2276S), GAPDH (#2118S), and α-tubulin (#3878S) (Cell Signaling) and ubiquitin antibody (#SAB4503053) from Sigma), and fluorescence-labeled secondary antibodies (Licor, #926-32211, 926-32210, 926-68023, or 926-68022). Gels were imaged (Odyssey, Licor) and band intensity quantified (Odyssey Software 3.1).
Human CHIP peptide fragments containing amino acid residues 13-30 were incubated with cGMP/PKG and assayed by MS. […] Phosphorylation was also observed at neighboring S24 and S26, but only when a S20A CHIP mutant was used (FIG. 2D). This indicates the primary target for PKG on CHIP is at S20. A monoclonal phospho-antibody generated against the S20 site in CHIP was tested in vitro with recombinant PKG1α and CHIP, verifying a consistent phospho-S20-CHIP signal. Use of a CHIP-S20A mutant CHIP confirmed specificity (FIG. 2E).

[2] = system: neonatal rat cardiomyocytes (NRCMs); assay: LDH/MTT cytotoxicity assay after simulated ischemia (SI); settings: for SI-induced cytotoxicity (LDH/MTT ratio): sildenafil 1 μM
Experimental: (§3) After overnight culture, subsets of NRCMs were infected with adenovirus (AdV) containing a FLAG-tagged PDE5, FLAG control, Myc-tagged CHIP WT or K31A (provided by Dr. Cam Patterson), S20E or S20A (Welgen Inc., Worcester, MA). Forty-eight hours after infection, cells were exposed to either simulated ischemia (SI) or normal conditions. SI involved incubating cells in DMEM containing deoxyglucose (20 mM), NaCl (125 mM), KCl (8 mM), KH2PO4 (1.2 mM), MgSO4 (1.25 mM), CaCl2) (1.2 mM), NaHCO3(6.25 mM), sodium lactate (5 mM), and HEPES (20 mM) with a pH of 6.6. Cells were then placed in an incubator chamber (Billups-Rothenberg) with 95% nitrogen, 4% carbon dioxide, and 1% oxygen. Normoxic controls were incubated in DMEM supplemented with 10% FBS in air composed of 95% carbon dioxide and 5% oxygen. RNA or protein was harvested after 48 hours of SI. Cells were also treated with sildenafil (1 μM) or vehicle, or small interference RNA (siRNA, 100 pM) specific for rat Stub1 (Qiagen, Cat. #: SI01532251) or scrambled control provided 24 hours after plating and transfected with Xfect (Takara) per manufacturer protocol.
(§4) Lactate dehydrogenase (LDH) leakage and (3-[4,5-dimethylthiazol-2-yl]-2,5-diphenyltetrazolium bromide) (MTT) were assessed in cultured cardiomyocytes and media after SI from the same culture dish. LDH was assayed by commercial assay (Roche) following manufacturer's protocol, read in 96 well microplates on a Spectramax M5 (Molecular Devices) at 490 nm absorbance. For MTT, cells were washed in phosphate-buffered saline, MTT (Sigma-Aldrich) working solution added to the culture dish, incubated at 37° C., solubilized with acidic isopropanol, transferred to a 96 well plate, and read at 570 nm with background subtraction at 650 nm on a Spectramax M5.

[3] = system: proteasome; assay: Proteasome activity assay in NRCMs; assay type: cell-based, rat; settings: control cells and cells subjected to SI
Experimental: Proteasome peptidase activity assays were performed as described (22) with slight modification.

[4] = system: neonatal rat cardiomyocytes (NRCMs)
Experimental: as §3, §4

[5] = system: ubiquitinated proteins; assay: Western blot of ubiquitinated proteins in NRCMs after SI; assay type: cell-based, rat; settings: adenovirus CHIP variant, SI 48 hours, compared to CHIP-WT
Experimental: as §1

[6] = target: T1, Hsc70 (Rattus norvegicus, UniProt P63018); assay: CHIP-Hsc70 co-immunoprecipitation from myocyte lysate; assay type: cell-based; settings: myocytes with or without SI, Hsc70 as bait
T1 construct: lysate from myocytes with or without exposure to SI were immunoprecipitated using Hsc70 as bait; endogenous in cells; host or cells: neonatal rat cardiomyocytes infected with adenovirus for Myc-tagged CHIP WT, S20E or S20A
Experimental: as §1
To test whether thermodynamic stabilization of CHIP-HSC70 due to S20 phosphorylation enhances protein binding, lysate from myocytes with or without exposure to SI were immunoprecipitated using Hsc70 as bait. […] Reduced CHIP-Hsc70 interaction was also observed in vivo following MI in hearts with PKG activation suppressed by mPDE5A/oe, whereas this was enhanced in WT hearts (FIG. 5C, FIG. 14B).

[7] = system: TTR-V122I; assay: TTR abundance in hiPSC-CMs by western blot; assay type: cell-based, human; settings: siLamp2A 100 μM, TTR-V122I 5 μM, 14 days
Experimental: (§2) Human induced pluripotent stem cell derived cardiomyocytes (hiPSC-CMs) were infected with Ad-Chip WT, SE, or SA (10 MOI), in the presence or absence of protein kinase G (PKG) stimulation via cGMP (100 mM) and exposed to media containing TTR-V122I (5 μM) or control for 14 days. Cells were lysed and TTR abundance was determined by western blotting for TTR with a total protein stain used to show equal loading.
as §2, with “Lamp2A knockdown” for “protein kinase G (PKG) stimulation”, “siRNA (siLamp2A, 100 μM)” for “cGMP (100 mM)”, “loading. Knocking down Lamp2A removes the method of protein degradation known as chaperone mediated autophagy (CMA).” for “loading.”

[8] = system: transthyretin (TTR) V122I; assay: TTR aggregates in NRCMs by confocal microscopy; assay type: cell-based, rat; settings: TTR V122I 5 μM, adenovirus, 14 days
Experimental: Neonatal rat cardiomyocytes (NRCMs) were cultured in mutant transthyretin (TTR) valine 122 to isoleucine (V122I)-containing medium (5 μM) and transfected with a Chip SE (serine 20 phospho-mimetic) or SA ([…] phospho-null) adenovirus and cultured for 14 days. Cardiomyocytes were stained with phalloidin (red), TTR (green), and nuclei with DAPI (blue).

[9] = target: T2, recombinant human CHIP peptide fragment containing residues 13-30 (Uniprot Q9UNE7), WT
T2 chain: LGAGGGSPEKSPSAQELK

[10] = target: T3, recombinant human CHIP peptide fragment containing residues 13-30, S20A
T3 chain: LGAGGGAPEKSPSAQELK

CCCc1nn(C)c2c(=O)[nH]c(-c3cc(S(=O)(=O)N4CCN(C)CC4)ccc3OCC)nc12 [SIL, sildenafil]
CHIP pS20 level [1]: CHIP pS20 increased
SI-induced cytotoxicity (LDH/MTT ratio) ([2]; NRCMs expressing CHIP (scrambled siRNA)): reduced SI-induced cytotoxicity
cytotoxicity with SIL across CHIP forms ([2]; NRCMs expressing WT, S20E or S20A CHIP, control and SI conditions): lowered cytotoxicity regardless of which CHIP protein was expressed
SI-induced cytotoxicity (LDH/MTT ratio) ([2]; NRCMs lacking CHIP (CHIP-siRNA)): this protective effect was lost
proteasome activity [3]: augmented

B1: CHIP-S20A: phospho-silenced (phospho-null) CHIP mutant, serine 20 to alanine (protein)
chain: MKGKEEKEGGARLGAGGGAPEKSPSAQELKEQGNRLFVGRKYPEAAACYGRVITRNPLVAVYYTNRALCYLKMQQHEQALADCRRALELDGQSVKAHFFLGQCQLEMESYDEAIANLQRAYSLAKEQRLNFGDDIPSALRIAKKKRWNSIEERRIHQESELHSYLSRLIAAERERELEECQRNHEGDEDDSHVRAQQACIEAKHDKYMADMDELFSQVDEKRKKRDIPDYLCGKISFELMREPCITPSGITYDRKDIEEHLQRVGHFDPVTRSPLTQEQLIPNLAMKEVIDAFISENGWVEDY
modifications: left off: small tags and cut ends
notes: phospho-silenced (phospho-null) CHIP mutant, serine 20 to alanine
SI-induced cytotoxicity (LDH/MTT ratio) [4]: displayed greater cytotoxicity and blunted the protective effects from SIL
ubiquitinated proteins after SI [5]: significantly amplified
co-precipitation of CHIP and Hsc70 [6]: co-precipitation was absent
TTR accumulation with Lamp2A knockdown [7]: exacerbated the accumulation of TTR
TTR positive aggregates [8]: increased TTR positive aggregates

B2: human, active PKG1α purified from Sf9 cells (SRP0371, Sigma) (protein)
chain: SELEEDFAKILMLKEERIKELEKRLSEKEEEIQELKRKLHKCQSVLPVPSTHIGPRTTRAQGISAEPQTYRSFHDLRQAFRKFTKSERSKDLIKEAILDNDFMKNLELSQIQEIVDCMYPVEYGKDSCIIKEGDVGSLVYVMEDGKVEVTKEGVKLCTMGPGKVFGELAILYNCTRTATVKTLVNVKLWAIDRQCFQTIMMRTGLIKHTEYMEFLKSVPTFQSLPEEILSKLADVLEETHYENGEYIIRQGARGDTFFIISKGTVNVTREDSPSEDPVFLRTLGKGDWFGEKALQGEDVRTANVIAAEAVTCLVIDRDSFKHLIGGLDDVSNKAYEDAEAKAKYEAEAAFFANLKLSDFNIIDTLGVGGFGRVELVQLKSEESKTFAMKILKKRHIVDTRQQEHIRSEKQIMQGAHSDFIVRLYRTFKDSKYLYMLMEACLGGELWTILRDRGSFEDSTTRFYTACVVEAFAYLHSKGIIYRDLKPENLILDHRGYAKLVDFGFAKKIGFGKKTWTFCGTPEYVAPEIILNKGHDISADYWSLGILMYELLTGSPPFSGPDPMKTYNIILRGIDMIEFPKKIAKNAANLIKKLCRDNPSERLGNLKNGVKDIQKHKWFEGFNWEGLRKGTLTPPIIPSVASPTDTSNFDSFPEDNDEPPPDDNSGWDIDF
serine phosphorylation detected by mass spectrometry after incubation with cGMP/PKG [9]: Phosphorylation was observed at S20 with wildtype (WT) CHIP
serine phosphorylation detected by mass spectrometry after incubation with cGMP/PKG [10]: Phosphorylation was also observed at neighboring S24 and S26, but only when a S20A CHIP mutant was used
